Measured values taken from patent US20240294638A1 (LES LABORATOIRES SERVIER, published 2024).
Positions count from the first letter of the chain named. Names may count otherwise.

Tests used:
[1] = target: T1, recombinant human NKG2A/CD94 heterodimer (extracellular domains) (human, UniProt Q13241 32-179); experiment: SPR (IBIS MX96), mAb captured on anti-human IgG Fc, ECD heterodimer injected, 1:1 fit
T1 construct: extracellular domain; ECDs co-expressed in Expi293, purified by Ni-NTA and anti-Flag; also called HuNKG2A/huCD94; NKG2A/CD94 ECDs
T1 sequence (chain, as listed by the source, chain 1 of 2, one chain of several): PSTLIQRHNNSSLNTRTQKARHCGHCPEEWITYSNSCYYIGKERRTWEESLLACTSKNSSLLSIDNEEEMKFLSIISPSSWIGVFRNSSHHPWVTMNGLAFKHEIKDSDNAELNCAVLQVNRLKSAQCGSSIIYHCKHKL
Protocol: (§1) Kinetic binding analysis of anti-NKG2A monoclonal antibodies (mAbs) was performed by Surface Plasmon Resonance (SPR) using a Continuous Flow Microspotter (CFM, Wasatch Microfluidics, Salt Lake City, US) combined with an IBIS MX96 SPR instrument (IBIS Technologies, The Netherlands). The extracellular domains (ECDs) of human his-tagged NKG2A, NKG2C and FLAG-tagged CD94 were co-expressed using an Expi293™ expression system and purified by standard Ni-NTA chromatography followed by anti-Flag M2 affinity gel (A2220, Sigma). Binding kinetics were measured by capturing mAbs on a G-a-hu-IgG Fc SensEye® for 15 minutes using the CFM. After spotting, the SensEye® was positioned in the IBIS MX96 biosensor and immobilized mAbs were fixed by SensEye FixIt kit. Kinetic analysis was performed by applying a kinetic titration series injecting increasing concentrations of antigens from 1.6 nM to 400 nM as 2-fold dilutions. After each cycle of antigen injection, the surface was regenerated by 100 mM H₃PO₄, pH 3. Antigen association and dissociation were measured for 15 minutes. The recorded binding responses were fitted to a simple 1:1 binding model with Scrubber 2.0 software for calculation of the on-rate (kₒₙ or kₐ), off-rate (Koff or kd) and affinity (KD) constants. Binding kinetic parameters were measured as an average of three independent measuring points.

[2] = target: T2, recombinant human NKG2C/CD94 heterodimer (extracellular domains) (human, UniProt P26717 94-231; Q13241 32-179); experiment: as above
T2 construct: extracellular domain; also called HuNKG2C/huCD94; NKG2C/CD94 ECDs
T2 sequence (P26717 94-231, chain 1 of 2, one chain of several): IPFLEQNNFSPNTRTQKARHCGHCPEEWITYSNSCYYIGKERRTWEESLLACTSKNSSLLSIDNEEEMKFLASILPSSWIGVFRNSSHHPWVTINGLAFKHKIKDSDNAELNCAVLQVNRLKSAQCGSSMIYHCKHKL
Protocol: as §1

[3] = target: T3, human NKG2A and human CD94 expressed on transiently transfected CHO-S cells (human, UniProt Q13241 1-179); experiment: flow cytometry, transiently transfected CHO-S cells, AF647 goat anti-human IgG secondary (MFI) [cont.), panel 23925]
T3 construct: whole, on cells; also called human NKG2A/CD94 heterodimer
Protocol: (§2) CHO-S cells were transiently transfected with human NKG2A and human CD94, human NKG2C and human CD94, cynomolgus NKG2A and cynomolgus CD94 or cynomolgus NKG2C and cynomolgus CD94 constructs. Mock transfected CHO-S cells were included in the assay as a negative control. Antibodies were tested for binding to the transfected cells in 3-fold dilutions from 30 μg/mL down to 0.5 ng/ml antibody, and 0 μg/mL antibody, and incubated for 30 min at 4° C. Following a washing step, the cells were incubated with a fluorescent goat anti-human IgG (H+L) secondary antibody (A-21445, Invitrogen) for 30 min at 4° C. in the dark. After a second wash, the cells were tested by high throughput flow cytometry (IQue screener, Sartorius). Data were transferred to Excel and graphs were generated using GraphPad Prism® software.

[4] = target: T4, cynomolgus NKG2A and cynomolgus CD94 expressed on transiently transfected CHO-S cells (cynomolgus, UniProt Q68VD2 1-233; Q68VD4 1-179); experiment: blocking of PE-conjugated HLA-E pentamer binding to transiently transfected CHO-S cells, flow cytometry (percentage binding) [panel B cNKG2A]
T4 construct: whole, on cells
Protocol: (§3) CHO-S cells were transiently transfected with constructs for expression of human NKG2A and human CD94, human NKG2C and human CD94, cynomolgus NKG2A and cynomolgus CD94, or cynomolgus NKG2C and cynomolgus CD94. Mock transfected CHO-S cells were included in the assay as negative control. A PE-conjugated HLA-E pentamer was tested for binding to the heterodimers in the presence of anti-human NKG2A antibodies in 3-fold serial dilutions from 10 μg/mL down to 14 ng/mL antibody, and 0 μg/mL antibody. The antibodies were allowed to bind for 30 min at 4° C. prior to the addition of the HLA-E pentamer in a 1:50 dilution. The fluorescence intensity of HLA-E binding to the transfected cells was measured by high throughput flow cytometry (IQue screener, Sartorius). Data were transferred to Excel and graphs were generated using GraphPad Prism® software.

[5] = target: T5, I225M (Homo sapiens); experiment: flow cytometry, CHO-S cells transiently transfected with NKG2A variant and CD94, AF647 goat anti-human IgG secondary (MFI) [cont.), panel 23925]
T5 construct: co-expressed on CHO-S cells; also called human NKG2A I225M / human CD94 heterodimer on CHO-S cells
T5 sequence (P26715 whole entry I225M): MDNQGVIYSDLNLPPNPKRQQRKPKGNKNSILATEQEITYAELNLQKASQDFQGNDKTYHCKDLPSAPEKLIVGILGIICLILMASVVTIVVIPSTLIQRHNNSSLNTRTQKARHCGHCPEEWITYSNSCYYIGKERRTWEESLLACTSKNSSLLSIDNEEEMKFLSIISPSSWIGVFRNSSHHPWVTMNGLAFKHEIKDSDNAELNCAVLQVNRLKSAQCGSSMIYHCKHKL
Protocol: (§4) Six anti-human NKG2A antibodies were tested for binding to the different heterodimers expressed. Antibodies were tested for binding to the transfected cells in 3-fold serial dilutions from 1 μg/mL antibody, and 0 μg/ml antibody, and incubated for 30 min at 4° C. Following a washing step, the cells were incubated with a fluorescent goat anti-human IgG (H+L) secondary antibody (A-21445, Invitrogen) for 30 min at 4° C. in the dark. After a second wash, the cells were tested by high throughput flow cytometry (IQue screener, Sartorius). Data were transferred to Excel and graphs were generated using GraphPad Prism® software. A reference antibody analogue and an isotype control were included for comparison.

[6] = target: T3, human NKG2A and human CD94 expressed on …; experiment: as above
Protocol: as §4

[7] = target: T6, CD94 homodimer (human, UniProt Q13241 32-179, limits assumed); experiment: SPR
T6 sequence (looked up): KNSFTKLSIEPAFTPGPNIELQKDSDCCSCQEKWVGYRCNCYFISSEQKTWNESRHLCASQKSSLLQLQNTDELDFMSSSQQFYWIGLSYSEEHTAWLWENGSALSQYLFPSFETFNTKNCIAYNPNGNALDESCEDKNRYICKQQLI
Protocol: as §1
The binding affinities and kinetic parameters of the anti-NKG2A mAbs binding to NKG2A/CD94 and NKG2C/CD94 heterodimers are shown in Table 7. […] None of the mAbs bound to CD94 homodimer (data not shown).

[8] = target: T3, human NKG2A and human CD94 expressed on …; experiment: flow cytometry, CHO-S cells transiently transfected with NKG2A variant and CD94, AF647 goat anti-human IgG secondary (MFI) [panel 23566]
Protocol: as §4

[9] = target: T4, cynomolgus NKG2A and cynomolgus CD94 …; experiment: flow cytometry, transiently transfected CHO-S cells, AF647 goat anti-human IgG secondary (MFI) [panel 23566]
Protocol: as §2

[10] = target: T3, human NKG2A and human CD94 expressed on …; experiment: as above
Protocol: as §2

[11] = target: T7, human NKG2C and human CD94 expressed on transiently transfected CHO-S cells (human, UniProt P26717 1-231; Q13241 1-179); experiment: blocking of PE-conjugated HLA-E pentamer binding to transiently transfected CHO-S cells, flow cytometry (percentage binding) [cont.), panel C hNKG2C]
T7 construct: whole, on cells
T7 sequence (P26717 whole entry, one chain of several): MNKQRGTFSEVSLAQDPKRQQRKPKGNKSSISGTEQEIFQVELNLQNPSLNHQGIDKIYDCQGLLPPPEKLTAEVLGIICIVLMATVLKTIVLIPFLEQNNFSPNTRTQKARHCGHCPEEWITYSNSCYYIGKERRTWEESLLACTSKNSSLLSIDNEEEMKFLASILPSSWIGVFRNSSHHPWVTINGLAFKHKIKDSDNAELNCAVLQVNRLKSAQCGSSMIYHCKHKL
Protocol: as §3

[12] = target: T4, cynomolgus NKG2A and cynomolgus CD94 …; experiment: flow cytometry, transiently transfected CHO-S cells, AF647 goat anti-human IgG secondary (MFI) [panel 23686]
Protocol: as §2

[13] = target: T8, cynomolgus NKG2C and cynomolgus CD94 expressed on transiently transfected CHO-S cells (cynomolgus); experiment: as above
T8 construct: whole, on cells
Protocol: as §2

[14] = target: T7, human NKG2C and human CD94 expressed on …; experiment: as above
Protocol: as §2

[15] = target: T3, human NKG2A and human CD94 expressed on …; experiment: as above
Protocol: as §2

[16] = target: T8, cynomolgus NKG2C and cynomolgus CD94 …; experiment: blocking of PE-conjugated HLA-E pentamer binding to transiently transfected CHO-S cells, flow cytometry (percentage binding) [cont.), panel D cNKG2C]
Protocol: as §3

[17] = target: T5, I225M; experiment: flow cytometry, CHO-S cells transiently transfected with NKG2A variant and CD94, AF647 goat anti-human IgG secondary (MFI) [panel 23686]
Protocol: as §4

[18] = target: T7, human NKG2C and human CD94 expressed on …; experiment: as above
Protocol: as §4

[19] = target: T3, human NKG2A and human CD94 expressed on …; experiment: as above
Protocol: as §4

B1: antibody 23925 (antibody, human IgG1, kappa, L234A L235A, V domains shown)
VH: EVQLVESGGGLVQPGGSLRLSCAASGFTFSSYAMNWVRQAPGKGLEWVSTISNSGGTTYYADSVKGRFTISRDNSKDTLYLQMNSLRAEDTAVYYCAKAHYYARGYFDYWGQGTLVTVSS
VL: DIQMTQSPSSVSASVGDRVTITCRASQGISSWLAWYQQKSGKAPKLLIYAASSLQIGVPSRFSGSGSGTDFTLTISSLQPEDFATYYCQQANSFPYTFGQGTKLEIKR
notes: Fully human IgG1-LALA (L234A/L235A), kappa
Question: With B1 as the binder, how does the Kd [1] read?
Answer: Its Kd is 2.23 nM.

Question: And the koff [1]?
Answer: The koff was 0.00042 s⁻¹.

Question: And the kon [1]?
Answer: The kon was 190000 M⁻¹ s⁻¹.

Question: And the Kd [2]?
Answer: Its Kd is 68 nM.

Question: What about the koff [2] of the same binder?
Answer: Its koff is 0.0006 s⁻¹.

Question: And the kon [2]?
Answer: Its kon is 8800 M⁻¹ s⁻¹.

Question: What about the “EC50 (read off the curve)” value [3] of the same binder?
Answer: The value was ~0.02 µg/mL.

Question: Does B1 bind [4]?
Answer: Result: no binding (tested: 10000 ng/ml)

Question: And the “EC50 (read off the curve)” value [5]?
Answer: The value was ~0.003 µg/mL.

Question: What about the “EC50 (read off the curve)” value [6] of the same binder?
Answer: Its value is ~0.004 µg/mL.

Question: Does B1 bind [7]?
Answer: Result: no binding

B2: antibody 23566 (antibody, human IgG1, kappa, L234A L235A, V domains shown)
VH: B1 VH with V5L, G10D, S30D, S31N, N35H, S52T, I70L, D77N, Y109F
VL: B1 VL with S7T, S40P, I56S
notes: Fully human IgG1-LALA (L234A/L235A), kappa; also called mAb 23566
Question: B2 was tested. Which Kd [1] did it give?
Answer: The Kd was 2.5 nM.

Question: What about the koff [1] of the same binder?
Answer: Its koff is 0.0011 s⁻¹.

Question: What about the kon [1] of the same binder?
Answer: The kon was 420000 M⁻¹ s⁻¹.

Question: What about the Kd [2] of the same binder?
Answer: The Kd was 98 nM.

Question: And the koff [2]?
Answer: The koff was 0.00083 s⁻¹.

Question: And the kon [2]?
Answer: The kon was 8500 M⁻¹ s⁻¹.

Question: And the “EC50 (read off the curve)” value [8]?
Answer: Its value is ~0.005 µg/mL.

Question: Does B2 bind [7]?
Answer: Result: no binding

Question: Does B2 bind [9]?
Answer: Result: no binding (tested: about 3300 ng/ml)

Question: And the “EC50 (read off the curve)” value [10]?
Answer: Its value is ~0.02 µg/mL.

B3: antibody 23686 (antibody, human IgG1, kappa, L234A L235A, V domains shown)
VH: EVQLVESGGGLVKPGGSLRLSCAASGFTFSSYSMNWVRQAPGKGLEWVSSISSSSSYIYYADSVKGRFTISRDNAKNSLYLQMNSLRAEDTAVYYCARDEWGLLGFDSWGQGTLVTVSS
VL: EIVLTQSPATLSLSPGERATLSCRASQSISNYLAWYQQKPGQAPRLLIYDASNRATGIPARFSGSGSGTDFTLTISSLEPEDFAVYYCQQRTDWPPWTFGQGTKVEIKR
notes: as for B1
Question: For B3, which Kd [1] is on record?
Answer: The Kd was 0.72 nM.

Question: What about the koff [1] of the same binder?
Answer: The koff was 0.00014 s⁻¹.

Question: What about the kon [1] of the same binder?
Answer: The kon was 200000 M⁻¹ s⁻¹.

Question: And the Kd [2]?
Answer: The Kd was 3.9 nM.

Question: And the koff [2]?
Answer: Its koff is 0.0026 s⁻¹.

Question: And the kon [2]?
Answer: The kon was 670000 M⁻¹ s⁻¹.

Question: What about the “IC50 (read off the curve)” value [11] of the same binder?
Answer: Its value is ~0.2 µg/mL.

Question: And the “IC50 (read off the curve)” value [4]?
Answer: Its value is ~0.3 µg/mL.

Question: What about the “EC50 (read off the curve)” value [12] of the same binder?
Answer: Its value is ~0.02 µg/mL.

Question: And the “EC50 (read off the curve)” value [13]?
Answer: Its value is ~0.02 µg/mL.

Question: And the “EC50 (read off the curve)” value [14]?
Answer: Its value is ~0.01 µg/mL.

Question: And the “EC50 (read off the curve)” value [15]?
Answer: The value was ~0.03 µg/mL.

Question: Does B3 bind [7]?
Answer: Result: no binding

Question: And the “IC50 (read off the curve)” value [16]?
Answer: The value was ~0.7 µg/mL.

Question: And the “EC50 (read off the curve)” value [17]?
Answer: The value was ~0.007 µg/mL.

Question: What about the “EC50 (read off the curve)” value [18] of the same binder?
Answer: Its value is ~0.003 µg/mL.

Question: And the “EC50 (read off the curve)” value [19]?
Answer: Its value is ~0.005 µg/mL.
